Data as given in article PMC6266874.

How the values were obtained:
Test in all cases: GST-WRKY pull-down of BIK1-HA from leaf extract
Settings in all cases: reference: wild type BIK1; sites S89,T90
[1] = molecular target: WRKY50 (UniProt Q8VWQ5)
[2] = molecular target: WRKY33 (UniProt Q8S8P5)
[3] = molecular target: WRKY57 (UniProt Q9C983)

binding against the reference [1]: stronger
binding against the reference [2]: stronger
binding against the reference [3]: stronger
Substance: BIK1 (Botrytis-induced kinase 1) (from UniProt O48814) S89A/T90A
